Where no end group is shown, it is not given here. Side-chain parts run from the residue outwards. The star is where a group is joined. Biotin = O=C1N[C@H]2[C@H](CS[C@H]2CCCCC(=O)*)N1; Aoa = not defined here
Key:
[1] = target: T1, SARS-CoV-2 Mac1 (conserved macrodomain of non-structural protein 3), His-tagged (SARS-CoV-2, UniProt P0DTD1); test: AlphaScreen or HTRF
[2] = target: T1, SARS-CoV-2 Mac1 (conserved macrodomain …); test: fluorescence polarisation

Row | Binder | binding result [1] | binding result [2]
1 | ARTK(Biotin)QTARK([Aoa-ADP‑ribose])S (reading uncertain) [10 amino acid biotinylated and ADP-ribosylated peptide [ARTK(Bio)QTARK (Aoa-RADP)S]] | binds | 
2 | ARTKQTARKS [fluorescein labeled ADP-ribosylated peptide [5 Flu-ARTKQTARK (Aoa-RADP)S]] |  | binds

From article PMC9119168 (Antiviral Research, 2022)
